In the supplement of paper PMC12042874:
± gives the uncertainty stated by the source.

Experiment: amyloid nucleation score (Sup35N fusion, yeast selection) (log enrichment); library NNK1; higher = more nucleation; inactive = no reads after selection
In short: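 Peptides of 20 random codons fused to Sup35N were expressed in psi-negative yeast, induced 24 hours with 100 μM copper sulfate, then grown 7 days at 30°C on medium lacking adenine and uracil. Input and output plasmid inserts were Illumina-sequenced. Nucleation score is the DiMSum log enrichment of output over input reads, centred on the mode score of non-aggregating sequences, excluding sequences with under 100 input reads. Random libraries had three technical output replicates.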

Substance | amyloid nucleation score
YCGSYHLGSFGIYSTVEIYC | 1.37 ± 0.9
YCNGNRKVVEVDFDWILGGG | -0.33 ± 1.1
YDEGHS | -0.778 ± 1.2
YDFLPRVNNPLSRNLRHRAL | -0.071 ± 0.56
YDIRL | -0.376 ± 0.65
YDNRSALDWCLGEVMFAST | -0.993 ± 0.35
YDRVLNLSDSWCTNAAPWWG | 0.394 ± 0.43
YDYGVESLRLVVLCNDLWFL | -0.346 ± 0.4
YDYHRNLSNHFLCFTLNWLT | 5.23 ± 0.072
YEDLSNDYNSNRWIVYALSK | -0.189 ± 0.24
YEFLIWVCPTALRRVVSSVV | 0.189 ± 0.74
YEKMTRFNVGKCHMVHFSLP | -0.376 ± 1.4
YELKQSL | -0.301 ± 0.73
YELKSDNLFVRLF | -0.706 ± 0.46
YFCPLKCVMPENDCPFPMVM | 0.416 ± 0.25
YFCSSGWANVMLLLSVQTNR | 0.173 ± 0.35
YFFVLEFIVCIVMTITSLSC | -0.988 ± 0.48
YFGMSY | -1.38 ± 0.66
YFKLIVLVGLNAREWRAAMV | -0.221 ± 0.4
YFMTHRGLCRCISLSYNFKI | -0.957 ± 0.98
YFQFRDGIFIFYVTF | 0.415 ± 0.64
YFRIDAKTWFVSFPVALLPV | -0.557 ± 0.29
YFYDILGCDWKALSGRLIDT | -0.603 ± 0.25
YGEPYV | 0.829 ± 0.66

Substance | amyloid nucleation score
YGGLGYSLIGCYADLDGVIL | 1.47 ± 0.39
YGINAVFLLIDLDERITDYL | 0.105 ± 0.29
YGKSYVIDGVVWGRQDSWES | -0.748 ± 1.6
YGLMVVVKVS | 6.666 ± 0.043
YGNYGCLGRWNSLHTCSQIC | -0.913 ± 0.67
YHGRRVPRDVTNQRTMAQCD | 3.66 ± 0.087
YHIGTVVIPWLKVNRIYRGI | 4.96 ± 0.081
YHNGDYCCVQFTTGSWVVRW | 0.391 ± 0.28
YHNLVLQSICDCSSLADLGW | 6.66 ± 0.059
YHRGIYLFSRSC | -0.906 ± 0.88
YHTNTGDDPSCPRPSTSYSG | 1.98 ± 0.51
YHVRVKYFPWNGTNVTVLDS | -0.73 ± 0.32
YIFSHDKGMRR | 2.49 ± 0.25
YIHGGVMCKDPAPFSYFASI | -0.114 ± 0.59
YILPEAEHSKGC | 0.803 ± 0.63
YILSISYYFPRGMVDIVMFM | 0.5 ± 0.48
YINLDHCRMSSSTA | 0.85 ± 0.65
YINLVLGFSYVFLLGLANRM | -0.773 ± 0.24
YIPQSPDDSFWEVMFYLFLS | -0.43 ± 1.2
YISDSLYGFDEVGRDWLRVA | -0.025 ± 0.56
YISFHTTSYRFRLYRLL | 0.894 ± 0.17
YIVYFESRN | 0.438 ± 0.16
YIYDIGGLTHATMRCTCR | 0.635 ± 0.49
YIYYSNFCPDRLIVFINAMT | inactive

Substance | amyloid nucleation score
YKKGYWSGDVAFVWWFTYMC | 0.959 ± 0.54
YKLRFNILASMDNRMKLKWL | -0.899 ± 0.81
YKVCRMCAKGCSDSFRPVRA | 0.555 ± 0.48
YKVSKMNRRDTNGNLVNRRV | -0.211 ± 1.2
YKYREGGKWPL | -1.3 ± 2.4
YLCLAECSLSPYNTTLVGGV | -1.6 ± 0.81
YLFAWSWEDGFYTGACRLLA | 0.006 ± 0.29
YLGTFN | inactive
YLICWVIPGSNVGLMVGMTA | 0.093 ± 1.4
YLIMGNVFNVAVVGGIGCVE | 0.345 ± 0.29
YLNACGSSVRTKVRCSRVIL | -0.209 ± 0.91
YLPTVIPVFI | 0.125 ± 0.98
YLRDVRLYCVMRK | -0.129 ± 0.38
YLVAVVIGSIPAPSRMYSVA | 0.904 ± 0.51
YLVFMQEITLTKQLLWQSMR | -0.224 ± 0.39
YLVRVMFWLLGRCEA | inactive
YLYAACVVWLMLLPNME | -0.671 ± 1.2
YLYCSVSVYRFERFRRNHSR | 0.051 ± 0.3
YMASDEVNI | -0.232 ± 0.26
YMDGVPG | 0.042 ± 1.2
YMFWRGLVFKWVV | 0.667 ± 0.56
YMIMQLDACFECLTFQGQY | 5.9 ± 0.087
